Reference: paper PMC11393453, “Phosphorylation of tau at a single residue inhibits binding to the E3 ubiquitin ligase, CHIP” (Nature Communications, 2024)
Residue numbers refer to the chain shown, from its start. Read-outs that look alike come from different tables or passages of the source. Non-standard residues stand in square brackets, D forms with d. pS = N[C@@H](COP(=O)(O)O)C(=O)O

What was measured:
CHIP [1] = experiment: NanoBiT live cell PPI assay (CHIP-tau split luciferase); format: cell-based; conditions: 30 nM okadaic acid; HEK293 cells
Protocol: Fig. 1 Phosphorylation of tauC3 inhibits interaction with CHIP. A Cartoon schematic of the live-cell NanoBiT assay for measuring CHIP-tau PPIs (NanoBiT PDB = 7SNX; CHIP PDB = 2C2L). B Results of NanoBiT assays for CHIP interactions with tau proteoforms following treatment with okadaic acid (30 nM, 18 h) or DMSO control. Luminescence normalized to CHIP binding to FL 0N4R tau treated with vehicle (dashed line). Error bars represent standard deviation (SD). Statistical significance was determined by two-way ANOVA with Bonferroni’s post hoc analysis (n = 3 biological replicates). CTRL = mock transfected control. C Tau proteoforms binding to immobilized CHIP measured by ELISA. Assay was performed in technical triplicate and normalized to maximum absorbance at 450 nm. D Dissociation constants derived from (C). Error bars represent SD. E In vitro ubiquitination of tau proteoforms by CHIP. Samples were collected at the denoted timepoints, quenched in SDS-PAGE loading buffer, and analyzed by western blot. Assay was performed once.
Fig. 2 Phosphorylation of tauC3 Ser416 is sufficient to inhibit interaction with CHIP. A Cartoon depicting constructs used for mapping of inhibitory phosphorylation sites by NanoBiT live cell assays. B NanoBiT live cell assay for CHIP interactions with truncated tau constructs following treatment with okadaic acid (30 nM, 18 h) or DMSO control. Data are shown as the difference between okadaic acid treated samples and vehicle control. Error bars represent SD. Statistical significance was determined by two-sided, one-way ANOVA with Tukey’s post hoc analysis (n = 3 biological replicates). C Apparent change in melting temperatures (Tmapp) for CHIP incubated with DMSO control or Hsp70 C-terminal peptides, as determined by DSF. Error bars represent SD. (n = 4 technical replicates). D DSF experiments performed and analyzed as in the previous panel, but with tauC3-derived peptides. (n = 4 technical replicates). E Competition FP experiment showing displacement of fluorescent tracer from the CHIP TPR domain by various 10-mer Hsp70 or tauC3-derived peptides. Experiments were performed in technical quadruplicate. F Inhibition constants derived from (E). Error bars represent SD. G Tau proteoforms binding to immobilized CHIP, as measured by ELISA. Assay was performed in technical triplicate and normalized to maximum absorbance at 450 nm. H Dissociation constants derived from (G). Error bars represent SD.
CHIP-substrate NanoBiT PPI assay was performed as previously described. Briefly, HEK293T cells were seeded in poly-D-lysine coated 96-well plates (Corning, flat bottom, white opaque) in Opti-MEM. Cells were transfected with 50 ng each SmBiT/LgBiT DNA using Lipofectamine 3000 (Thermo Fisher) in Opti-MEM according to the manufacturer’s instructions. Transfections were performed for 24 h, after which the media was replaced with fresh Opti-MEM containing DMSO or 30 nM okadaic acid. Cells were incubated for an additional […] at 37 °C/5% CO2 in a humidified incubator. Following this incubation, 12.5 uL 1X Nano-Glo live cell luciferase reagent (Promega) diluted in LCS buffer (Promega) was added to each well, and samples were incubated for 10 min at room temperature in the dark to allow luminescence levels to stabilize. […] Un-transfected cells were used to obtain background measurements which were subtracted from observed luminescence values.

CHIP [2] = experiment: Differential scanning fluorimetry (DSF), CHIP WT with 10-mer peptides; format: binding, human; conditions: CHIP + peptide, sheet S3B
Protocol: DSF was performed with a 10 µL assay volume in 384-well Axygen quantitative PCR plates (Fisher Sci) on a qTower[3] real-time PCR thermal cycler (Analytik Jena). […] Temperature was increased 1 °C per cycle. Each well contained 5 µM CHIP, 5× Sypro Orange dye (Thermo Fisher), and varying concentrations of peptide in DSF assay buffer (25 mM HEPES pH 7.4, 50 mM KCl, 1 mM TCEP, 0.2% CHAPS, 1%DMSO). Fluorescence intensity data was truncated between 30–60 °C, plotted relative to temperature, and fit to a Boltzmann Sigmoid in GraphPad Prism 9.0. CHIP apparent melting temp (Tmapp) was calculated based on the following equation:1 Y=Bottom+((Top−Bottom)/(1+exp(Tm−T/Slope)))

[3] = molecular target: CHIP (C-terminus of Hsc70 interacting protein; STUB1) (UniProt Q9UNE7); experiment: competition FP against fluorescent tracer; conditions: reference: unmodified Hsp70 peptide; sites T636
[4] = molecular target: CHIP (C-terminus of Hsc70 interacting protein; STUB1) (UniProt Q9UNE7); experiment: differential scanning fluorimetry of CHIP
[5] = molecular target: GFP-tagged tauC3 S416E, doxycycline-inducible in HEK293 Flp-In T-REx cells; experiment: co-IP; tau immunoprecipitated with anti-Tau-5 and Protein A/G agarose from lysates of HEK293 Flp-In T-REx GFP-tau cells (25 mM Tris-HCl pH 7.4, 150 mM NaCl, 1 mM EDTA, 1% NP-40); co-precipitated endogenous CHIP by western blot
[6] = molecular target: CHIP (C-terminus of Hsc70 interacting protein; STUB1), recombinant human, full-length (human) (UniProt Q9UNE7)
[7] = molecular target: CHIP (C-terminus of Hsc70 interacting protein; STUB1) (UniProt Q9UNE7); experiment: tau IP (Tau-5), CHIP western blot; conditions: reference: GFP-tauC3 WT; sites S416
[8] = molecular target: CHIP (C-terminus of Hsc70 interacting protein; STUB1), recombinant human, full-length (human) (UniProt Q9UNE7); remark: listed apart in the source
CHIP F131A = molecular target: T1, CHIP F131A (human, UniProt Q9UNE7 1-303, F131A); experiment: differential scanning fluorimetry; 5 µM CHIP, 5x Sypro Orange, varying concentrations of peptide in 25 mM HEPES pH 7.4, 50 mM KCl, 1 mM TCEP, 0.2% CHAPS, 1% DMSO; apparent melting temperature (Tmapp) of CHIP; conditions: both partners purified
T1 construct: CHIP (STUB1) with Phe131 mutated to alanine
T1 sequence (looked up): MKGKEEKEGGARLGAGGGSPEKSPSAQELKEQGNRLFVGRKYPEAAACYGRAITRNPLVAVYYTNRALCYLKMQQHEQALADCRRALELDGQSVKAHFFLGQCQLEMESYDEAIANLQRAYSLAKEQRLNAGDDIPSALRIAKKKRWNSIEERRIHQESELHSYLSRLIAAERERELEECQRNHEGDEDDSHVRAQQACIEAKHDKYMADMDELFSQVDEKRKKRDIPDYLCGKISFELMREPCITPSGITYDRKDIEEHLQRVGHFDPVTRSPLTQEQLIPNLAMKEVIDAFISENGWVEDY

CHIP D134A = molecular target: T2, CHIP D134A (human, UniProt Q9UNE7 1-303, D134A); experiment: fluorescence polarisation; competition: CHIP 1.58 µM + fluorescent tracer 20 nM, peptide competitor in three-fold dilutions, 25 mM HEPES pH 7.4, 50 mM KCl, 0.01% Triton X-100, DMSO; Ki calculated from IC50; conditions: both partners purified
T2 construct: CHIP (STUB1) with Asp134 mutated to alanine; also called D134A CHIP
T2 sequence (looked up): T1 sequence (looked up) with A131F, D134A

[9] = molecular target: T3, CHIP (C-terminus of Hsc70 interacting protein; STUB1), recombinant human, full-length (human, UniProt Q9UNE7 1-303); experiment: as above; conditions: both partners purified
T3 construct: CHIP (STUB1), human, E3 ubiquitin ligase; Used in ELISA, DSF and FP; the FP legends speak of the CHIP TPR domain, the FP methods only of CHIP; also called WT CHIP; source: E. coli BL21DE3, purified (Ni-NTA, TEV cleavage, SEC); not shown: His6, N-terminal, cleaved
T3 sequence (looked up): T1 sequence (looked up) with A131F

[10] = reference: unmodified tauC3 peptide, sites S416

C=C1[C@@H](O)[C@@H]2O[C@]3(CC[C@H](/C=C/[C@@H](C)[C@@H]4CC(C)=C[C@@]5(O[C@H](C[C@@](C)(O)C(=O)O)CC[C@H]5O)O4)O3)CC[C@H]2O[C@@H]1[C@@H](O)C[C@H](C)[C@H]1O[C@@]2(CCCCO2)CC[C@H]1C [okadaic acid, reference compound]
effect on CHIP interaction with FL tau (CHIP [1]): enhanced CHIP’s interaction with FL tau
effect on CHIP interaction with tauC3 (CHIP [1]): significantly lessened the interaction with tauC3

ESTGSIDMVD [tauC3 S412E, 10-mer tauC3 phosphomimetic peptide]
Tm(app) derived from DSF curves (CHIP [2]; replicate 1): 50.23
Tm(app) derived from DSF curves (CHIP [2]; replicate 2): 50.09
Tm(app) derived from DSF curves (CHIP [2]; replicate 3): 49.65
Tm(app) derived from DSF curves (CHIP [2]; replicate 4): 49.78

Hsp70 (HSPA1A) C-terminal 10mer (from UniProt P0DMV8) pT636 peptide
binding against the reference [3]: weaker
binding against the reference ([4]; reference: unmodified Hsp70 peptide, sites T636): weaker

SETGSIDMVD [tauC3 S413E, 10-mer tauC3 phosphomimetic peptide]
Tm(app) derived from DSF curves (CHIP [2]; replicate 1): 50.06
Tm(app) derived from DSF curves (CHIP [2]; replicate 2): 50.15
Tm(app) derived from DSF curves (CHIP [2]; replicate 3): 49.96
Tm(app) derived from DSF curves (CHIP [2]; replicate 4): 49.5

SSEGSIDMVD [tauC3 T414E, 10-mer tauC3 phosphomimetic peptide]
Tm(app) derived from DSF curves (CHIP [2]; replicate 1): 49.33
Tm(app) derived from DSF curves (CHIP [2]; replicate 2): 49.12
Tm(app) derived from DSF curves (CHIP [2]; replicate 3): 49.22
Tm(app) derived from DSF curves (CHIP [2]; replicate 4): 48.96

endogenous CHIP (from UniProt Q9UNE7 1-303) (enzyme)
relative amount of co-immunoprecipitated CHIP [5]: 0.55

p.tauC3, natively phosphorylated tauC3 from Sf9 insect cells (domain or fragment)
Kd [6]: 700 nM

tau (MAPT/tau; tauC3, FL 0N4R tau) C-terminal 10-mer of tauC3, ends at D421 (from UniProt P10636-8) S416E peptide (Ac-…-OH)
other: CHIP Tmapp [4, 10]: weaker; reference 48.81 ± 0.11

tau (MAPT/tau; tauC3, FL 0N4R tau) C-terminal 10-mer of tauC3, ends at D421 (from UniProt P10636-8) pS416 peptide
binding against the reference [4, 10]: weaker

tau (MAPT/tau; tauC3, FL 0N4R tau) tauC3, ends at D421 (from UniProt P10636-8) GFP-tauC3 S416E
other: relative amount of co-IP CHIP [7]: 0.55

tauC3 S416E, recombinant protein with a single phosphomimetic mutation (domain or fragment)
Kd [8]: 780 nM

tauC3, unmodified recombinant (0N4R tau cleaved at D421) (domain or fragment)
Kd [6]: 190 nM
Kd [8]: 90 nM

B1: tauC3 C-terminal 10-mer peptide Ac-SSTGSIDMVD-OH (peptide)
peptide: Ac-SSTGSIDMVD-OH
notes: C-terminus of tauC3 (tau ending at D421); numbers count on: the 2N4R-tau splice isoform; also called WT tauC3 peptide; WT tauC3; source: synthetic peptide
binding result (CHIP F131A): binds
Ki (CHIP D134A): 5570 nM
Ki [9]: 150 nM

B2: tauC3 pS416 10-mer peptide (peptide)
peptide: Ac-SSTG[pS]IDMVD-OH
notes: C-terminal 10-mer of tauC3 with a bona fide phosphoserine at the S416 position; numbers count on: the 2N4R-tau splice isoform; also called phosphorylated tauC3 peptide; source: synthetic peptide (Genscript)
Ki (CHIP D134A): 1840 nM
Ki [9]: 1010 nM
